Laboratory results published in US20240285725A1 (APELLIS PHARMACEUTICALS, published 2024).

What was measured:
Assay in all cases: cell-based or functional assay
complement component C3 [1] = target: T1, complement component C3 (human, UniProt P01024 23-1663)
complement component C3 [2] = target: T1, complement component C3; remark: listed apart in the source
complement component C3 [3] = target: T1, complement component C3; remark: listed apart in the source

Row | Binder | IC50 (read off the curve), classical-pathway complement activation (C3b deposition ELISA, human plasma) (complement component C3 [1]) | IC50, classical complement inhibition assay (C3b deposition ELISA, human plasma), as a function of CA28 moiety concentration (complement component C3 [2]) | IC50 on a molar basis (corrected for 7.5 CA28 moieties per molecule), classical complement inhibition assay (complement component C3 [3])
1 | ICVWQDWGAHRCTK (N-terminal acetyl; 1-methyl-tryptophan at position 4; disulfide Cys2-Cys12; AEEAc between Thr13 and Lys; C-terminal amide; linear 40 kD mPEG (NOF ME-400CS) on the Lys side chain) [CA28-AEEAc-Lys(mPEG40K-succinyl)] | ~700 nM |  | 
2 | ICVWQDWGAHRCTK (not fully specified; N-terminal acetyl; 1-methyl-tryptophan at position 4; disulfide Cys2-Cys12; AEEAc between Thr13 and Lys; C-terminal amide; linear 40 kD mPEG (NOF ME-400TS) on the Lys side chain) [CA28-AEEAc-Lys(mPEG40K-carbonyl)] | ~700 nM |  | 
3 | ICVWQDWGAHRCTK (not fully specified; N-terminal acetyl; 1-methyl-tryptophan at position 4; disulfide Cys2-Cys12; AEEAc between Thr13 and Lys; C-terminal amide; linear monofunctional 40 kD PEG (NOF ME-400GS) on the Lys side chain) [CA28-AEEAc-Lys-(PEG40k)] | ~700 nM |  | 

The remaining lines, values ahead:

Row | IC50 (read off the curve), classical-pathway complement activation (C3b deposition ELISA, human plasma) (complement component C3 [1]) | IC50, classical complement inhibition assay (C3b deposition ELISA, human plasma), as a function of CA28 moiety concentration (complement component C3 [2]) | IC50 on a molar basis (corrected for 7.5 CA28 moieties per molecule), classical complement inhibition assay (complement component C3 [3]) | Binder
4 | ~700 nM |  |  | ICVWQDWGAHRCTK (N-terminal acetyl; 1-methyl-tryptophan at position 4; disulfide Cys2-Cys12; AEEAc between Thr13 and Lys; C-terminal amide; linear 40 kD mPEG (NOF ME-400HS) on the Lys side chain) [CA28-AEEAc-Lys(mPEG40K-hexanoyl)]
5 |  | 1930 nM | ~260 nM | ICVWQDWGAHRCTK (N-terminal acetyl; 1-methyl-tryptophan at position 4; disulfide Cys2-Cys12; AEEAc between Thr13 and Lys; C-terminal amide; Lys side chain coupled to an arm of an eight-arm 40 kD PEG (NOF HGEO-400GS)) [(CA28-AEEAc)8-PEG40k]
